From IntAct's records for PubMed 19798056

B1: TOM1-like protein 1 (Homo sapiens), O75674 (parent)
chain: MAFGKSHRDPYATSVGHLIEKATFAGVQTEDWGQFMHICDIINTTQDGPKDAVKALKKRISKNYNHKEIQLTLSLIDMCVQNCGPSFQSLIVKKEFVKENLVKLLNPRYNLPLDIQNRILNFIKTWSQGFPGGVDVSEVKEVYLDLVKKGVQFPPSEAEAETARQETAQISSNPPTSVPTAPALSSVIAPKNSTVTLVPEQIGKLHSELDMVKMNVRVMSAILMENTPGSENHEDIELLQKLYKTGREMQERIMDLLVVVENEDVTVELIQVNEDLNNAILGYERFTRNQQRILEQNKNQKEATNTTSEPSAPSQDLLDLSPSPRMPRATLGELNTMNNQLSGLNFSLPSSDVTNNLKPSLHPQMNLLALENTEIPPFAQRTSQNLTSSHAYDNFLEHSNSVFLQPVSLQTIAAAPSNQSLPPLPSNHPAMTKSDLQPPNYYEVMEFDPLAPAVTTEAIYEEIDAHQHKGAQNDGD

Variants of: B1
Conditions: with grb2_human GRB2, P62993

Row | effect of a mutation on the interaction | Variant
1 | disrupting interaction | Y392F

Variants of: B1
Conditions: with grb2_human GRB2, P62993
Remark: another data set of the same source

Row | effect of a mutation on the interaction | Variant
2 | disrupting interaction | Y460F
